Source: US20220010008A1
Residue numbers refer to the chain shown, from its start. Where “and” joins values, the source holds several entries; their conditions need not be identical. Identical values can stand only once.

Legend:
[1] = biological target: recombinant human IL-5 protein (human) (UniProt P05113); assay: cell-based or functional assay
[2] = biological target: recombinant human IL-5 protein (human) (UniProt P05113); assay: ELISA, biotin-human IL-5 on streptavidin plate, Ab 0.0002 nM
[3] = biological target: recombinant human IL-5 protein (human) (UniProt P05113); assay: ELISA, biotin-human IL-5 on streptavidin plate, Ab 0.0009 nM
[4] = biological target: recombinant human IL-5 protein (human) (UniProt P05113); assay: ELISA, biotin-human IL-5 on streptavidin plate, Ab 0.0043 nM
[5] = biological target: recombinant human IL-5 protein (human) (UniProt P05113); assay: ELISA, biotin-human IL-5 on streptavidin plate, Ab 0.0213 nM
[6] = biological target: recombinant human IL-5 protein (human) (UniProt P05113); assay: ELISA, biotin-human IL-5 on streptavidin plate, Ab 0.1067 nM
[7] = biological target: recombinant human IL-5 protein (human) (UniProt P05113); assay: ELISA, biotin-human IL-5 on streptavidin plate, Ab 0.5333 nM
[8] = biological target: recombinant human IL-5 protein (human) (UniProt P05113); assay: ELISA, biotin-human IL-5 on streptavidin plate, Ab 2.6667 nM
[9] = biological target: recombinant human IL-5 protein (human) (UniProt P05113); assay: ELISA, biotin-human IL-5 on streptavidin plate, Ab 13.3333 nM
[10] = biological target: recombinant human IL-5 protein (human) (UniProt P05113); assay: FACS blocking: biotin-IL-5 bound to CHOK1 IL-5Ra/CSF2RB cells, Ab 0.0004 nM
[11] = biological target: recombinant human IL-5 protein (human) (UniProt P05113); assay: FACS blocking: biotin-IL-5 bound to CHOK1 IL-5Ra/CSF2RB cells, Ab 0.0021 nM
[12] = biological target: recombinant human IL-5 protein (human) (UniProt P05113); assay: FACS blocking: biotin-IL-5 bound to CHOK1 IL-5Ra/CSF2RB cells, Ab 0.0107 nM
[13] = biological target: recombinant human IL-5 protein (human) (UniProt P05113); assay: FACS blocking: biotin-IL-5 bound to CHOK1 IL-5Ra/CSF2RB cells, Ab 0.0533 nM
[14] = biological target: recombinant human IL-5 protein (human) (UniProt P05113); assay: FACS blocking: biotin-IL-5 bound to CHOK1 IL-5Ra/CSF2RB cells, Ab 0.2667 nM
[15] = biological target: recombinant human IL-5 protein (human) (UniProt P05113); assay: FACS blocking: biotin-IL-5 bound to CHOK1 IL-5Ra/CSF2RB cells, Ab 1.3333 nM
[16] = biological target: recombinant human IL-5 protein (human) (UniProt P05113); assay: FACS blocking: biotin-IL-5 bound to CHOK1 IL-5Ra/CSF2RB cells, Ab 6.6667 nM
[17] = biological target: recombinant human IL-5 protein (human) (UniProt P05113); assay: FACS blocking: biotin-IL-5 bound to CHOK1 IL-5Ra/CSF2RB cells, Ab 33.3333 nM
[18] = biological target: recombinant human IL-5 protein (human) (UniProt P05113); assay: SPR, human IL-5 immobilized on CM5 chip, chimeric antibody as analyte, 1:1 global fit
[19] = biological target: recombinant human IL-5 protein with His tag (human) (UniProt P05113); assay: ELISA, biotin-human IL-5 on streptavidin; antibody 0.0002 nM
[20] = biological target: recombinant human IL-5 protein with His tag (human) (UniProt P05113); assay: ELISA, biotin-human IL-5 on streptavidin; antibody 0.0009 nM
[21] = biological target: recombinant human IL-5 protein with His tag (human) (UniProt P05113); assay: ELISA, biotin-human IL-5 on streptavidin; antibody 0.0043 nM
[22] = biological target: recombinant human IL-5 protein with His tag (human) (UniProt P05113); assay: ELISA, biotin-human IL-5 on streptavidin; antibody 0.0213 nM
[23] = biological target: recombinant human IL-5 protein with His tag (human) (UniProt P05113); assay: ELISA, biotin-human IL-5 on streptavidin; antibody 0.1067 nM
[24] = biological target: recombinant human IL-5 protein with His tag (human) (UniProt P05113); assay: ELISA, biotin-human IL-5 on streptavidin; antibody 0.5333 nM
[25] = biological target: recombinant human IL-5 protein with His tag (human) (UniProt P05113); assay: ELISA, biotin-human IL-5 on streptavidin; antibody 2.6667 nM
[26] = biological target: recombinant human IL-5 protein with His tag (human) (UniProt P05113); assay: ELISA, biotin-human IL-5 on streptavidin; antibody 13.3333 nM

B1: 151G3B11 mouse-human chimeric antibody (antibody, human IgG4, V domains shown)
VH: EVHLQQSGAELVKPGASVKLSCTASGFNIKDYYMHWVKQRTEQGLEWIGRIDPEDGETKYAPKFQGQATITADTSSNTANLQLSSLTSEDTAVYYCARYGNFPDYWGPGTTLTVSS
VL: QIVLTQSPALMSASPGEKVTMTCSASSSVSYMYWYQQKPRSSPKPWIYLTSKLASGVPARFSGSGSGTSYSLTISSMEAEDAATYYCQQWNSNPYTFGGGTKLEIK
RLU, CTLL-2 proliferation with IL-5, Ab 0.000170667 nM [1]: 47900 RLU and 63200 RLU
RLU, CTLL-2 proliferation with IL-5, Ab 0.000853333 nM [1]: 54300 RLU and 63000 RLU
RLU, CTLL-2 proliferation with IL-5, Ab 0.004266667 nM [1]: 51200 RLU and 58000 RLU
RLU, CTLL-2 proliferation with IL-5, Ab 0.02133333 nM [1]: 41700 RLU and 43900 RLU
RLU, CTLL-2 proliferation with IL-5, Ab 0.1066667 nM [1]: 10900 RLU and 10300 RLU
RLU, CTLL-2 proliferation with IL-5, Ab 0.5333334 nM [1]: 8370 RLU and 8250 RLU
RLU, CTLL-2 proliferation with IL-5, Ab 2.666667 nM [1]: 6580 RLU and 7940 RLU
RLU, CTLL-2 proliferation with IL-5, Ab 13.33333 nM [1]: 5750 RLU and 5810 RLU
RLU, CTLL-2 proliferation with IL-5, Ab 66.66666 nM [1]: 3690 RLU and 4030 RLU
RLU, CTLL-2 proliferation with IL-5, Ab 3.41333E-05 nM [1]: 46800 RLU and 55000 RLU
RLU, TF-1 proliferation with IL-5, Ab 0.00001 nM [1]: 95500 RLU and 93900 RLU
RLU, TF-1 proliferation with IL-5, Ab 0.00003 nM [1]: 89800 RLU and 92600 RLU
RLU, TF-1 proliferation with IL-5, Ab 0.00017 nM [1]: 76600 RLU and 80400 RLU
RLU, TF-1 proliferation with IL-5, Ab 0.00085 nM [1]: 66300 RLU and 74200 RLU
RLU, TF-1 proliferation with IL-5, Ab 0.00427 nM [1]: 41500 RLU and 46000 RLU
RLU, TF-1 proliferation with IL-5, Ab 0.02133 nM [1]: 38600 RLU and 44100 RLU
RLU, TF-1 proliferation with IL-5, Ab 0.10667 nM [1]: 41600 RLU and 38800 RLU
RLU, TF-1 proliferation with IL-5, Ab 0.53333 nM [1]: 36400 RLU and 36800 RLU
RLU, TF-1 proliferation with IL-5, Ab 2.66667 nM [1]: 38400 RLU and 36800 RLU
RLU, TF-1 proliferation with IL-5, Ab 13.33333 nM [1]: 36200 RLU and 33500 RLU
OD450 nm [2]: 0.098 OD450 nm and 0.127 OD450 nm
OD450 nm [3]: 0.127 OD450 nm and 0.114 OD450 nm
OD450 nm [4]: 0.194 OD450 nm and 0.244 OD450 nm
OD450 nm [5]: 0.622 OD450 nm and 0.678 OD450 nm
OD450 nm [6]: 1.87 OD450 nm and 1.92 OD450 nm
OD450 nm [7]: 3.03 OD450 nm and 2.93 OD450 nm
OD450 nm [8]: 3.47 OD450 nm and 3.5 OD450 nm
OD450 nm [9]: 3.7 OD450 nm and 3.52 OD450 nm
Fluorescence intensity [10]: 95 MFI
Fluorescence intensity [11]: 90 MFI
Fluorescence intensity [12]: 85 MFI
Fluorescence intensity [13]: 82 MFI
Fluorescence intensity [14]: 68 MFI
Fluorescence intensity [15]: 41 MFI
Fluorescence intensity [16]: 33 MFI
Fluorescence intensity [17]: 28 MFI
Kd [18]: < 0.0637 nM
koff [18]: < 1e-05 s⁻¹
kon [18]: 157000 M⁻¹ s⁻¹

B2: 154F10G8 (murine hybridoma antibody) (antibody, V domains shown)
VH: QVQLQQPGAELVKPGASVKLSCKASGYTFTSYWITWVKQRPGQGLEWIGDIYPGSGSTFYNEKFKSEATLTVDTSSSTAYMQLSSLTSEDSAVFYCSTETTLGYWGQGTTLTVSS
VL: DVLMTQTPLSLPVSLGDQASISCRSSQSIVHNNGNTYLEWYLQKPGQSPKLLIYKVSNRFSGVPDRFSGSGSGTDFTLKISRVEAEDLGVYYCFQGSHVPFTFGSGTKLEIK
OD450 nm [19]: 0.079 and 0.07
OD450 nm [20]: 0.093 and 0.092
OD450 nm [21]: 0.205 and 0.193
OD450 nm [22]: 0.595 and 0.64
OD450 nm [23]: 1.69 and 1.71
OD450 nm [24]: 2.76 and 2.69
OD450 nm [25]: 3.23 and 3.17
OD450 nm [26]: 3.3 and 3.49

B3: 147D7H2 (murine hybridoma antibody) (antibody, V domains shown)
VH: EVQLQQSGAELVKPGASVKLSCTASGFNIKDYFIHWVKQRTEQGLEWIGRIDTEDGETKYAPKFQGKATITIDTSSNTAYLYFSSLTSEDTAMYYCARYGNYVAMDYWGQGTSVTVSS
VL: B1 VL with Y33F, R40S, M77V
OD450 nm [19]: 0.073 and 0.074
OD450 nm [20]: 0.088 and 0.09
OD450 nm [21]: 0.158 and 0.159
OD450 nm [22]: 0.438 and 0.475
OD450 nm [23]: 1.42 and 1.47
OD450 nm [24]: 2.76
OD450 nm [25]: 3.09 and 3.2
OD450 nm [26]: 3.21 and 3.52
